Where no end group is shown, it is not given here.
Target: T1, SARS CoV-2 S1S2 trimer (SARS-CoV-2, UniProt P0DTC2 14-1213)
T1 construct: also called trimeric S1S2; "wt" spike trimer
Experiment: SPR
Conditions: both partners purified

B1: CVRBDL-3 (peptide)
peptide: HDFWWEYDKKNDTWTRRRR-NH2
notes: also called CVRDBL-3; CVRBD-3; source: synthetic peptide; bought: CASLO
stoichiometry N: 1

Reference: article PMC8962251 (Biomedicines, 2022)
